# Read-outs that look alike come from different tables or passages of the source.
# How the values were obtained:
# [1] = biological target: T1, myc-GIPR-Rluc (UniProt P48546)
# T1 sequence: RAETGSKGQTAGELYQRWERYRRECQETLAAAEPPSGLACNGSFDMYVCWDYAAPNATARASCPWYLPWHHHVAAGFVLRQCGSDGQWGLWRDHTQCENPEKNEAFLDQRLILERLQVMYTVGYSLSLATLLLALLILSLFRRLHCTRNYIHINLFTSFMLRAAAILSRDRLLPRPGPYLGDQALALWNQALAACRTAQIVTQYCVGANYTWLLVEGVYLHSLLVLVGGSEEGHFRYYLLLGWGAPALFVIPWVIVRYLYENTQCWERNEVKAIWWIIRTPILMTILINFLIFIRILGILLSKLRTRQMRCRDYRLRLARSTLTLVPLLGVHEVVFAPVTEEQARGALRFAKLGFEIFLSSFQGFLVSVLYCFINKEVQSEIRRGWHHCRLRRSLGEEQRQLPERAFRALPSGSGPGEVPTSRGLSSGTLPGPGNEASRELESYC
# [2] = biological target: T1, myc-GIPR-Rluc; remark: listed apart in the source
"ERK1/2 phosphorylation, biphasic model, high potency component; pEC50 1 [1]","ERK1/2 phosphorylation, biphasic model, low potency component; pEC50 2 [1]","ERK1/2 phosphorylation, biphasic model, high potency component; pEC50 1 [2]","ERK1/2 phosphorylation, biphasic model, low potency component; pEC50 2 [2]","[Ca^2+]i mobilisation, HEK-293S cells with untagged GIPR; pEC50 [2]","cAMP accumulation, 8 min stimulation, HEK-293S cells with untagged GIPR; pEC50 [2]",Substance
8.72 -logEC50,6.88 -logEC50,,,,,GIP (D-Ala2) (from UniProt P09681 52-93) (peptide)
7.49 -logEC50,4.5 -logEC50,,,,,GIP (Pro3) (peptide)
,,9.13 -logEC50,6.22 -logEC50,8.7 -logEC50,9.83 -logEC50,GIP (1-42) (from UniProt P09681 52-93) (peptide)

# From publication doi:10.1101/2021.04.08.436756
